Results on 64 substances are retold here after patent publication US10472401B2, “Peptides and combination of peptides for use in immunotherapy against ovarian cancer and other cancers” (immatics biotechnologies GmbH, priority 2015, dated 2019).

In the experiment the target is HLA-A*02:01 (Homo sapiens, UniProt P04439, D140Y/D185E/D98H/E176V/E277Q/G131W/G231S/I119V/I121R/I166T/I218V/L300P/L318F/N151K/N90K/P208A/P217A/Q86G/Q94H/R138H/R169H/T345S). Kind of experiment: MHC binding assay (UV-ligand exchange, ELISA of stabilized MHC complexes). Particulars: MHC class I binding score; binding to HLA-A*02:01 ranged by peptide exchange yield (UV-ligand exchange, ELISA). The source says: Candidate peptides for T cell based therapies according to the present invention were further tested for their MHC binding capacity (affinity). The individual peptide-MHC complexes were produced by UV-ligand exchange, where a UV-sensitive peptide is cleaved upon UV-irradiation, and exchanged with the peptide of interest as analyzed. Only peptide candidates that can effectively bind and stabilize the peptide-receptive MHC molecules prevent dissociation of the MHC complexes. To determine the yield of the exchange reaction, an ELISA was performed based on the detection of the light chain (β2m) of stabilized MHC complexes. The assay was performed as generally described in Rodenko et al. (Rodenko et al., 2006).
96 well MAXISorp plates (NUNC) were coated over night with 2 ug/ml streptavidin in PBS at room temperature, washed 4× and blocked for 1h at 37° C. in 2% BSA containing blocking buffer. […] Peptide-MHC monomers of the UV-exchange reaction were diluted 100 fold in blocking buffer. Samples were incubated for 1h at 37° C., washed four times, incubated with 2 ug/ml HRP conjugated anti-82m for 1h at 37° C., washed again and detected with TMB solution that is stopped with […]. Absorption was measured at 450 nm. Candidate peptides that show a high exchange yield (preferably higher than 50%, most preferred higher than 75%) are generally preferred for a generation and production of antibodies or fragments thereof, and/or T cell receptors or fragments thereof, as they show sufficient avidity to the MHC molecules and prevent dissociation of the MHC complexes.
For orientation: ELISA stands for enzyme-linked immunosorbent assay.
Consider “120 (ALLGIPLTLV; listed as Homo sapiens) [compound 120]”, for which the Peptide exchange entry is reported as “″+++″ (≥50% = +++)”.

For “333 (FLPDANSSV; listed as Homo sapiens) [compound 333]”, the Peptide exchange entry was “″++″ (≥20% = ++)”.

Regarding “158 (KLFDVDEDGYI; listed as Homo sapiens) [compound 158]”, the Peptide exchange entry is “″+++″ (≥50% = +++)”.

Regarding “95 (SVIPQIQKV; listed as Homo sapiens) [compound 95]”, the Peptide exchange entry is “″+++″ (≥50% = +++)”.

Take “121 (GVVDPRAISVL; listed as Homo sapiens) [compound 121]”: the Peptide exchange entry was “″++″ (≥20% = ++)”.

On to “582 (TLCDVILMV; listed as Homo sapiens) [compound 582]”, for which the Peptide exchange entry was “″+++″ (≥50% = +++)”.

With “614 (LLLPDQPPYHL; listed as Homo sapiens) [compound 614]”, the Peptide exchange entry is reported as “″+++″ (≥50% = +++)”.

As to “174 (ALAQYLITA; listed as Homo sapiens) [compound 174]”, the Peptide exchange entry is listed as “″+++″ (≥50% = +++)”.

On to “528 (SVAEGRALMSV; listed as Homo sapiens) [compound 528]”, for which the Peptide exchange result was “″+++″ (≥50% = +++)”.

For “363 (KVLDVSDLESV; listed as Homo sapiens) [compound 363]”, the Peptide exchange entry was “″++″ (≥20% = ++)”.

Consider “514 (ILVDWLVQV; listed as Homo sapiens) [compound 514]”, for which the Peptide exchange entry is “″+++″ (≥50% = +++)”.

Consider “558 (GLLENIPRV; listed as Homo sapiens) [compound 558]”, for which the Peptide exchange result is on record as “″+++″ (≥50% = +++)”.

Take “374 (FLLQQHLISA; listed as Homo sapiens) [compound 374]”: the Peptide exchange result is “″++″ (≥20% = ++)”.

As for “74 (ALLDPEVLSIFV; listed as Homo sapiens) [compound 74]”, the Peptide exchange entry is “″+++″ (≥50% = +++)”.

For “464 (ALNDCIYSV; listed as Homo sapiens) [compound 464]”, the Peptide exchange entry was “″+++″ (≥50% = +++)”.

In the case of “495 (FIFSEKPVFV; listed as Homo sapiens) [compound 495]”, the Peptide exchange entry is reported as “″+++″ (≥50% = +++)”.

For the substance “303 (AILPQLFMV; listed as Homo sapiens) [compound 303]”, the Peptide exchange entry is given as “″++++″ (≥75% = ++++)”.

As for “409 (LLDAMNYHL; listed as Homo sapiens) [compound 409]”, the Peptide exchange result is reported as “″++″ (≥20% = ++)”.

Consider “526 (RLAEVGQYEQV; listed as Homo sapiens) [compound 526]”, for which the Peptide exchange entry is “″++″ (≥20% = ++)”.

For “6 (VLVSDGVHSV; listed as Homo sapiens) [compound 6]”, the Peptide exchange entry is recorded as “″+++″ (≥50% = +++)”.

For the substance “123 (NLWDLTDASVV; listed as Homo sapiens) [compound 123]”, the Peptide exchange entry is “″+++″ (≥50% = +++)”.

“452 (ILLEHGADPNL; listed as Homo sapiens) [compound 452]”: the Peptide exchange entry is reported as “″+++″ (≥50% = +++)”.

Consider “59 (IMEDIILTL; listed as Homo sapiens) [compound 59]”, for which the Peptide exchange entry is recorded as “″+++″ (≥50% = +++)”.

On to “509 (FLFDTKPLIV; listed as Homo sapiens) [compound 509]”, for which the Peptide exchange result is “″+++″ (≥50% = +++)”.

With “330 (QLALKVEGV; listed as Homo sapiens) [compound 330]”, the Peptide exchange entry is reported as “″+++″ (≥50% = +++)”.

Turning to “370 (SLLQDLVSV; listed as Homo sapiens) [compound 370]”, the Peptide exchange entry was “″+++″ (≥50% = +++)”.

On to “597 (KLLEGQVIQL; listed as Homo sapiens) [compound 597]”, for which the Peptide exchange result is recorded as “″+++″ (≥50% = +++)”.

As for “163 (ALDEMGDLLQL; listed as Homo sapiens) [compound 163]”, the Peptide exchange result is “″+++″ (≥50% = +++)”.

With “342 (HIYDKVMTV; listed as Homo sapiens) [compound 342]”, the Peptide exchange entry is “″+++″ (≥50% = +++)”.

“33 (VLLSLLEKV; listed as Homo sapiens) [compound 33]”: the Peptide exchange entry is reported as “″++″ (≥20% = ++)”.

As to “51 (LLPDLEFYV; listed as Homo sapiens) [compound 51]”, the Peptide exchange result is given as “″++++″ (≥75% = ++++)”.

“126 (VLAYFLPEA; listed as Homo sapiens) [compound 126]”: the Peptide exchange entry is recorded as “″++++″ (≥75% = ++++)”.

“358 (ALDEYTSEL; listed as Homo sapiens) [compound 358]”: the Peptide exchange result is reported as “″++++″ (≥75% = ++++)”.

Turning to “480 (ALLEDSCHYL; listed as Homo sapiens) [compound 480]”, the Peptide exchange result was “″+++″ (≥50% = +++)”.

Regarding “407 (YLMDLINFL; listed as Homo sapiens) [compound 407]”, the Peptide exchange result is “″+++″ (≥50% = +++)”.

“444 (GLLRDEALAEV; listed as Homo sapiens) [compound 444]”: the Peptide exchange result is “″+++″ (≥50% = +++)”.

Consider “336 (ILLTAIVQV; listed as Homo sapiens) [compound 336]”, for which the Peptide exchange result is “″+++″ (≥50% = +++)”.

On to “362 (TLYGLSVLL; listed as Homo sapiens) [compound 362]”, for which the Peptide exchange entry is “″+++″ (≥50% = +++)”.

Consider “314 (ALIAEGIALV; listed as Homo sapiens) [compound 314]”, for which the Peptide exchange result was “″+++″ (≥50% = +++)”.

As to “244 (SLFGGTEITI; listed as Homo sapiens) [compound 244]”, the Peptide exchange entry is given as “″+++″ (≥50% = +++)”.

As to “563 (WLLPYNGVTV; listed as Homo sapiens) [compound 563]”, the Peptide exchange result is “″+++″ (≥50% = +++)”.

Turning to “139 (SVMEVNSGIYRV; listed as Homo sapiens) [compound 139]”, the Peptide exchange entry is “″+++″ (≥50% = +++)”.

Consider “566 (VIADGGIQNV; listed as Homo sapiens) [compound 566]”, for which the Peptide exchange result is “″++″ (≥20% = ++)”.

For “487 (LLINSVFHV; listed as Homo sapiens) [compound 487]”, the Peptide exchange entry is given as “″+++″ (≥50% = +++)”.

Regarding “613 (RLLPPGAVVAV; listed as Homo sapiens) [compound 613]”, the Peptide exchange entry is on record as “″+++″ (≥50% = +++)”.

Take “325 (FIMPATVADATAV; listed as Homo sapiens) [compound 325]”: the Peptide exchange result is on record as “″+++″ (≥50% = +++)”.

With “231 (FLSPQQPPLLL; listed as Homo sapiens) [compound 231]”, the Peptide exchange result is recorded as “″++″ (≥20% = ++)”.

With “315 (YLQDVVEQA; listed as Homo sapiens) [compound 315]”, the Peptide exchange entry is “″+++″ (≥50% = +++)”.

With “479 (SLFGNSGILENV; listed as Homo sapiens) [compound 479]”, the Peptide exchange entry is “″+++″ (≥50% = +++)”.

As to “518 (KLNAEVACV; listed as Homo sapiens) [compound 518]”, the Peptide exchange result is given as “″+++″ (≥50% = +++)”.

In the case of “30 (LILDWVPYI; listed as Homo sapiens) [compound 30]”, the Peptide exchange result was “″+++″ (≥50% = +++)”.

“549 (AMLENASDIKL; listed as Homo sapiens) [compound 549]”: the Peptide exchange result is “″+++″ (≥50% = +++)”.

Regarding “506 (KLLGKVETA; listed as Homo sapiens) [compound 506]”, the Peptide exchange result is recorded as “″+++″ (≥50% = +++)”.

In the case of “159 (GLVGNPLPSV; listed as Homo sapiens) [compound 159]”, the Peptide exchange result is given as “″++++″ (≥75% = ++++)”.

On to “109 (IILSILEQA; listed as Homo sapiens) [compound 109]”, for which the Peptide exchange entry was “″++++″ (≥75% = ++++)”.

With “551 (KLYESLLPFA; listed as Homo sapiens) [compound 551]”, the Peptide exchange result is on record as “″+++″ (≥50% = +++)”.

As for “574 (YLLQEPPRTV; listed as Homo sapiens) [compound 574]”, the Peptide exchange result is “″++″ (≥20% = ++)”.

As to “235 (YLNDLHEVLL; listed as Homo sapiens) [compound 235]”, the Peptide exchange entry is “″++++″ (≥75% = ++++)”.

In the case of “258 (ELAERVPAI; listed as Homo sapiens) [compound 258]”, the Peptide exchange result was “″++″ (≥20% = ++)”.

Turning to “343 (SLLEVNEESTV; listed as Homo sapiens) [compound 343]”, the Peptide exchange entry is on record as “″+++″ (≥50% = +++)”.

Regarding “179 (KVLNELYTV; listed as Homo sapiens) [compound 179]”, the Peptide exchange entry was “″+++″ (≥50% = +++)”.

On to “296 (FMEGAIIYV; listed as Homo sapiens) [compound 296]”, for which the Peptide exchange entry is recorded as “″+++″ (≥50% = +++)”.

Consider “299 (YLLETSGNL; listed as Homo sapiens) [compound 299]”, for which the Peptide exchange result is on record as “″+++″ (≥50% = +++)”.

Consider “137 (TLVLTLPTV; listed as Homo sapiens) [compound 137]”, for which the Peptide exchange entry is given as “″++++″ (≥75% = ++++)”.
